Test [1] deals with T1, XENP23311 (His-tagged NKG2D-Fc) (human, UniProt P26718 78-216).
T1 chain: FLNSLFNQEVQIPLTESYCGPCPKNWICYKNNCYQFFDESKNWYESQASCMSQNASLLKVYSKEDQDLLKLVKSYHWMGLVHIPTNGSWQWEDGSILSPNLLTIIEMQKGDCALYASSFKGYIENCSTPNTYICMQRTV
Kind of test: Octet; bivalent format. (In BLI a coated tip is dipped into the sample, and binding shifts an interference pattern.)

Test [2] concerns the target T1, XENP23311 (His-tagged NKG2D-Fc). Kind of test: Biacore; 1:1 Langmuir. On the technique in general: SPR reads the build-up and loss of mass on a sensor chip optically.
Test [3] shares this target. Kind of test: Biacore; steady state.
Test [4] concerns the target CD16 (UniProt P08637 17-208).

Numbering of substitutions follows the chain as printed.

Chain of CD16 (P08637 17-208): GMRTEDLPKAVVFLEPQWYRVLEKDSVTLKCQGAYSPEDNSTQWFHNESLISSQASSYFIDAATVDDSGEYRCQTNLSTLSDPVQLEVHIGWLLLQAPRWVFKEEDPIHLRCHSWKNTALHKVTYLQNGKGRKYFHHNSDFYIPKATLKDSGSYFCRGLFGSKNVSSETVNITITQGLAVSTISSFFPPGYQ

B1: XENP38093 (1D2B4, Bivalent) (antibody, V domains shown)
VH: EVQLLESGGGLVQPGGSLRLSCAASGFTFSSFGMSWVRQAPGKGLEWVSTISGSGSTTYYADSVKGRFTISRDNSKNTLYLQMNSLRAEDTAVYYCAKGVFSEWHYYFDYWGQGTLVTVSS
VL: not shown
With B1, the Kd in test [1] amounted to 0.52 nM.

B2: XENP42653 (bispecific antibody)
heavy: EVQLLESGGGLVQPGGSLRLSCAVSGFSLSSYGVIWVRQAPGKGLEYVSWVSSGGSTNYASSVKGRFTISRDTSKNTVYLQMNSLRAEDTAVYFCARGATNSGTDIWGPGTLVTVSSASTKGPSVFPLAPSSKSTSGGTAALGCLVKDYFPEPVTVSWNSGALTSGVHTFPAVLQSSGLYSLSSVVTVPSSSLGTQTYICNVNHKPSDTKVDKKVEPKSCDKTHTCPPCPAPELLGGPSVFLFPPKPKDTLMISRTPEVTCVVVDVSHEDPEVKFNWYVDGVEVHNAKTKPREEEYNSTYRVVSVLTVLHQDWLNGKEYKCKVSNKALPAPIEKTISKAKGQPREPQVYTLPPSREEMTKNQVSLTCDVSGFYPSDIAVEWESDGQPENNYKTTPPVLDSDGSFFLYSKLTVDKSRWEQGDVFSCSVMHEALHNHYTQKSLSLSPGK
chain: not shown
light: DIVMTQSPSSLSASVGDRVTITCRASQSINSWLSWYQQKPGKPPKLLIYGASNLASGVPSRFKGSGSGTDFTLTISSLQPEDFATYYCQNNYGIIAAGATFGGGTKVEIKRTVAAPSVFIFPPSDEQLKSGTASVVCLLNNFYPREAKVQWKVDNALQSGNSQESVTEQDSKDSTYSLSSTLTLSKADYEKHKVYACEVTHQGLSSPVTKSFNRGEC
For B2, the Kd in test [2] stood at 14800 nM; in test [3], 5410 nM.

B3: XENP42655 (bispecific antibody)
heavy: B2 heavy
chain: not shown
light: B2 light
For the molecule B3, the Kd in test [2] turned out to be 4190 nM; in test [3], 1490 nM.

B4: XENP41026 (antibody)
chain 1: B2 heavy
chain 2: EVQLLESGGGLVQPGGSLRLSCAVSGFSLSSYGVIWVRQAPGKGLEYVSWVSSGGSTNYASSVKGRFTISRDTSKNTVYLQMNSLRAEDTAVYFCARGATNSGTDIWGPGTLVTVSSGKPGSGKPGSGKPGSGKPGSDIVMTQSPSSLSASVGDRVTITCRASQSINSWLSWYQQKPGKPPKLLIYGASNLASGVPSRFKGSGSGTDFTLTISSLQPEDFATYYCQNNYGIIAAGATFGGGTKVEIKEPKSSDKTHTCPPCPAPELLGGPDVFLFPPKPKDTLMISRTPEVTCVVVDVSHEDPEVKFNWYVDGVEVHNAKTKPREEQYNSTYRVVSVLTVLHQDWLNGKEYKCKVSNKALPAPIEKTISKAKGQPREPQVYTLPPSREQMTKNQVKLTCLVKGFYPSDIAVEWESNGQPENNYKTTPPVLDSDGSFFLYSKLTVDKSRWQQGNVFSCSVMHEALHNHYTQKSLSLSPGK
chain 3: B2 light
Molecule B4 had a Kd in test [4] of 219 nM.

B5: XENP41023 (antibody)
chain 1: B2 heavy with S239D
chain 2: B4 chain 2
chain 3: B2 light
Consider B5, for which the Kd in test [4] was determined as 102 nM.

B6: XENP41036 (antibody)
chain 1: B2 heavy with I332E
chain 2: B4 chain 2
chain 3: B2 light
On to B6, for which, in test [4], the Kd was found to be 104 nM.

B7: XENP41033 (antibody)
chain 1: B2 heavy with S239D
chain 2: B4 chain 2 with I364E
chain 3: B2 light
B7 registered a Kd in test [4] of 59.9 nM.

B8: XENP42652 (bispecific antibody)
heavy: B2 heavy
chain: not shown
light: B2 light
As for B8, the Kd worked out at 253 nM in test [2] and 162 nM in test [3].

B9: XENP41021 (antibody)
chain 1: B2 heavy
chain 2: not shown
chain 3: B2 light
In turn, B9 came in with a Kd in test [4] of 417 nM.

B10: XENP40375_H1L1 (antibody)
chain 1: B2 heavy
chain 2: not shown
chain 3: B2 light
For B10, the Kd in test [2] was 15.5 nM; in test [3], 19 nM.

B11: XENP42654 (bispecific antibody)
heavy: B2 heavy
chain: not shown
light: B2 light
As for B11, the Kd in test [2] amounted to 360 nM; in test [3], 190 nM.

B12: XENP41034 (antibody)
chain 1: B2 heavy with I332E
chain 2: B4 chain 2 with I364E
chain 3: B2 light
In test [4], B12 had a Kd of 64.6 nM.

B13: XENP41025 (antibody)
chain 1: B2 heavy
chain 2: B4 chain 2 with I364E
chain 3: B2 light
B13 registered a Kd in test [4] of 136 nM.

B14: XENP41032 (antibody)
chain 1: B2 heavy with S239D, I332E
chain 2: B4 chain 2 with D271S, I364E
chain 3: B2 light
For the molecule B14, the Kd in test [4] came out at 60.2 nM.

B15: XENP41024 (antibody)
chain 1: B2 heavy with I332E
chain 2: B4 chain 2 with D271S, I364E
chain 3: B2 light
In test [4], B15 had a Kd of 120 nM.

B16: XENP41035 (antibody)
chain 1: B2 heavy with S239D
chain 2: B4 chain 2 with D271S, I364E
chain 3: B2 light
B16 showed a Kd in test [4] of 100 nM.

B17: XENP41031 (antibody)
chain 1: B2 heavy with S239D, I332E
chain 2: B4 chain 2
chain 3: B2 light
Regarding B17, the Kd in test [4] turned out to be 55.2 nM.

B18: XENP41029 (antibody)
chain 1: B2 heavy with S239D
chain 2: not shown
chain 3: B2 light
B18 gave a Kd in test [4] of 229 nM.

B19: XENP41028 (antibody)
chain 1: B2 heavy with S239D, I332E
chain 2: not shown
chain 3: B2 light
Take B19: the Kd in test [4] was 120 nM.

B20: XENP38098 (LB_1002, Bivalent) (antibody, V domains shown)
VH: EVQLVESGGGLVKPGGSLRLSCAASGFTFSSYSMNWVRQAPGKGLEWVSSISSSSSYIYYADSVKGRFTISRDNAKNSLYLQMNSLRAEDTAVYYCARGAPMGAAAGWFDPWGQGTLVTVSS
VL: DIQMTQSPSSVSASVGDRVTITCRASQGISSWLAWYQQKPGKAPKLLIYAASSLQSGVPSRFSGSGSGTDFTLTISSLQPEDFATYYCQQGVSFPRTFGGGTKVEIKR
B20: in test [1], the Kd was determined as 0.49 nM.

B21: XENP38097 (LB_1001, Bivalent) (antibody, V domains shown)
VH: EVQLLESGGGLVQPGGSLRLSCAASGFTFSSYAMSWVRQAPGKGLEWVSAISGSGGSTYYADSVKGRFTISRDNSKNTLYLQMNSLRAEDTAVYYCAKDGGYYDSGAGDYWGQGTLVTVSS
VL: B20 VL with S30D, F94Y
The molecule B21 showed a Kd in test [1] of 0.42 nM.

(Values after patent US20230151095A1 (published 2023).)
